Publication PMC11617104 (Molecular Biology of the Cell, 2024)

What was measured:
[1] = target: G3BP1 NTF2L domain (residues 1-139), V11A (UniProt Q13283 1-139, V11A); experiment: differential scanning fluorimetry
[2] = target: G3BP1 NTF2L domain (residues 1-139), wild type (UniProt Q13283 1-139); experiment: differential scanning fluorimetry
Chain of G3BP1 NTF2L domain (residues 1-139), wild type (Q13283 1-139): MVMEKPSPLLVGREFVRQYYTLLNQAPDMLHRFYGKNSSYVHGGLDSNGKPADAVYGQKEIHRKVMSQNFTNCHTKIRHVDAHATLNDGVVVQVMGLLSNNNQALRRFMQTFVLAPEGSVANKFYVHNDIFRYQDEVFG

Chain of G3BP1 NTF2L domain (residues 1-139), V11A (Q13283 1-139 V11A): as the sequence (Q13283 1-139) above, with V11A counted along it

With RQRVQDLMAQMQGPYNFIQDSMLDFENQTLD [Caprin-1 peptide (residues 356-386)] the “thermal shift (ΔTm)” value [1] was 1 to 1.5 °C and the “thermal shift (ΔTm) at 50 µM and 100 µM Caprin-1 peptide” value [2] was about 3 °C.
